Consider 1 molecule from patent publication US20130347134A1 (published 2013).

Test [1] addresses T1, murine platelet glycoprotein Ib alpha (GPIb α) on mouse platelets (mouse, UniProt O35930 17-734).
T1 construct: whole, on cells; Native receptor on mouse platelets or whole blood; also called murine GPIb α; mGPIb-α
T1 sequence (looked up): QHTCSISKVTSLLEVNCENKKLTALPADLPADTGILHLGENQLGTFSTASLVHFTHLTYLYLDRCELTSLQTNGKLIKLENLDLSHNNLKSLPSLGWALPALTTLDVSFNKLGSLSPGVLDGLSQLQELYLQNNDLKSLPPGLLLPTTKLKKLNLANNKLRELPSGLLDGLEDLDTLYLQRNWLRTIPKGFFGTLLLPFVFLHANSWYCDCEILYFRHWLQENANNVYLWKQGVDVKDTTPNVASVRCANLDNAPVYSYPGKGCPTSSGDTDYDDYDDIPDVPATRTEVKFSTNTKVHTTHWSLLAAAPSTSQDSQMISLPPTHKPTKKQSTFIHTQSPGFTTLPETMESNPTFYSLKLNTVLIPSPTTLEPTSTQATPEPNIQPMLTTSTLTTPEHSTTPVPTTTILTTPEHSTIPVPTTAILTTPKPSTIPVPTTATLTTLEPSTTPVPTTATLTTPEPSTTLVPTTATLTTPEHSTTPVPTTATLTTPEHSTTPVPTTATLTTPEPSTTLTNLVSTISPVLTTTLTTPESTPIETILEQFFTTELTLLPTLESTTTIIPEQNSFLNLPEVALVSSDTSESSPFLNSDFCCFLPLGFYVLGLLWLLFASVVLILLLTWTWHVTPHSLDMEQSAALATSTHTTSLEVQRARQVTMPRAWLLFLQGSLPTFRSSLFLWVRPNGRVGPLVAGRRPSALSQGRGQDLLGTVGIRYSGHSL
Briefly: mouse whole blood perfused 4 min over surface-immobilized recombinant VWF-A1, 1600 s-1. Here is the method:
(§1) Ex vivo platelet adhesion studies. Experiments were performed in a parallel-plate flow chamber as previously described (Offermanns, S., et al., 2006). […] Subsequently, the plate was washed and non-specific interactions blocked by the addition of TBS containing 3% BSA, pH 7.4 (1 hour, 37° C.). Human or murine plasma obtained from heparinized whole blood was added and the plates placed at 37° C. for an additional 2 hours. […] The number of platelets attached per unit area (0.07 mm²) and translocation velocities were determined by off-line analysis (Image-Pro Plus, Media Cybernetics). For GPIb α inhibition studies, the function-blocking mAb 6D1 (20 μg/ml) or mAb SZ2 (20 μg/ml; Beckman Coulter, Brea, Calif.) was added to anticoagulated human blood for 30 minutes prior to use. Experiments were performed in triplicate on two separate days. An ELISA was used to ensure equivalent coating concentration of plasma and recombinant proteins (Denis, C. et al., 1998).

Test [2] has as its target T2, human platelet glycoprotein Ib alpha (GPIb α) on human platelets (human, UniProt P07359 17-652).
T2 construct: whole, on cells; Native receptor on washed platelets or whole blood; also called GPIb alpha; hGPIb-α
Briefly: human whole blood over immobilized protein, parallel-plate flow chamber, 1600 s^-1. Here is the method:
as §1

B1: recombinant wild-type murine VWF-A1 domain protein (amino acid residues 1238 to 1471), Example 3 (ligand)
chain: QEPGGLVAPPTDAPVSSTTPYVEDTPEPPLHNFYCSKLLDLVFLLDGSSMLSEAEFEVLKAFVVGMMERLHISQKRIRVAVVEYHDGSRAYLELKARKRPSELRRITSQIKYTGSQVASTSEVLKYTLFQIFGKIDRPEASHITLLLTASQEPPRMARNLVRYVQGLKKKKVIVIPVGIGPHASLKQIRLIEKQAPENKAFLLSGVDELEQRRDEIVSYLCDLAPEAPAPTQPP
notes: Generated in bacteria, with a single disulfide 1272-1458; also called murine rVWF-A1; WT murine VWF-A1 domain protein
In the case of B1, the binding result in test [1] is “binds”. Further, the “platelet deposition relative to same-species control” value in test [2] is 25%.
